The values that follow come from publication PMC12620021 (Nucleic Acids Research, 2025).

In data set [1] the target is T1, RelE1 toxin of Mycobacterium tuberculosis (crystallization construct, expressed as His-SUMO–RelE1) (Mycobacterium tuberculosis, UniProt O50461 1-97).
T1 sequence: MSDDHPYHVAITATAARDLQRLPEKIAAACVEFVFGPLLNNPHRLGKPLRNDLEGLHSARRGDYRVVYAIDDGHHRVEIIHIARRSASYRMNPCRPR
Kind of data set: crystal structure. Particulars: both partners purified.

The data set “crystal structure” concerns the molecule itself. In words: crystal structure.

B1: RelB1 antitoxin of Mycobacterium tuberculosis (crystallization construct) (natural protein)
chain: MAVVPLGEVRNRLSEYVAEVELTHERITITRHGHPAAVLISADDLASIEETLEVLRTPGASEAIREGLADVAAGRFVSNDEIRNRYTAR
Regarding B1, the binding result (in data set [1]; in the data set “crystal structure”) was “binds” each time.
